How the values were obtained:
[1] = molecular target: DS-Cav1, prefusion-stabilized form of the RSV fusion (F) glycoprotein (human respiratory syncytial virus | not stated); experiment: cryo-EM structure
[2] = molecular target: DS-Cav1, prefusion-stabilized form of the RSV fusion (F) glycoprotein (human respiratory syncytial virus | not stated); experiment: crystal structure

DS-Cav1, prefusion-stabilized form of the RSV fusion (F) glycoprotein (natural protein)
stoichiometry N [1]: 3
stoichiometry N [2]: 3

Source: publication PMC8386734
